Data taken from paper PMC11780864, “RNA G-quadruplex structure-based PROTACs for targeted DHX36 protein degradation and gene activity modulation in mammalian cells”.

How the values were obtained:
[1] = biological target: T1, RHAU53 peptide (DHX36 fragment) (UniProt Q9H2U1); test: EMSA; Kd1, first shift; EMSA and MST: 25 mM Tris-HCl pH 7.5, 150 mM KCl, 1 mM MgCl2, 37 C 30 min; 30 nM (EMSA) or 40 nM (MST) FAM-oligo; EMSA gel 10% native PAGE, 0.5x TBE, 4 C; conditions: label: 3'-FAM; G4
T1 chain: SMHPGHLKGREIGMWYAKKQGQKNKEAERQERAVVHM

[2] = biological target: T1, RHAU53 peptide (DHX36 fragment); test: EMSA; EMSA and MST: 25 mM Tris-HCl pH 7.5, 150 mM KCl, 1 mM MgCl2, 37 C 30 min; 30 nM (EMSA) or 40 nM (MST) FAM-oligo; EMSA gel 10% native PAGE, 0.5x TBE, 4 C; conditions: label: 3'-FAM; for binding result: non-G4
[3] = biological target: T1, RHAU53 peptide (DHX36 fragment); test: competition; EMSA vs 30 nM FAM_dG4_A, 100 nM RHAU53; EMSA and MST: 25 mM Tris-HCl pH 7.5, 150 mM KCl, 1 mM MgCl2, 37 C 30 min; 30 nM (EMSA) or 40 nM (MST) FAM-oligo; EMSA gel 10% native PAGE, 0.5x TBE, 4 C; conditions: G4

B1: FAM_rG4_A_PEG2 (FAM_rG4_A) (structured_RNA)
RNA: GGGUUGCGGAGGGUGGGCCU
modifications: 5'-hexynyl clicked to AHPC-PEG2 (VHL ligand)
For B1, the Kd [1] was 67.5 ± 13.2 nM.

B2: FAM_rG4_P_PEG1-C2 (structured_RNA)
RNA: GGGUUGCGGAGGGUGGGCCU
modifications: 5'-hexynyl clicked to pomalidomide-PEG1-C2
B2 was tested, and the Kd [1] was 174 ± 35.3 nM.

B3: FAM_rG4 mut_A (ssRNA)
RNA: GAGUUGCGGAGAGUGAGCCU
modifications: 5'-hexynyl clicked to AHPC-PEG2
B3: no binding [2].

B4: FAM_rG4_P_C6 (structured_RNA)
RNA: GGGUUGCGGAGGGUGGGCCU
modifications: 5'-hexynyl clicked to pomalidomide-C6
B4 gave a Kd [1] of 160 ± 26.2 nM.

B5: FAM_rG4 (5' Hexynyl_hTERC rG4 WT_3' FAM) (structured_RNA)
RNA: GGGUUGCGGAGGGUGGGCCU
modifications: 5'-hexynyl
In the case of B5, the Kd ([2]; G4) is reported as 66.7 ± 16.5 nM.

B6: FAM_rG4_A_C6 (structured_RNA)
RNA: GGGUUGCGGAGGGUGGGCCU
modifications: 5'-hexynyl clicked to AHPC-C6
For B6, the Kd [1] was 70.3 ± 9.3 nM.

B7: FAM_dG4_A (T95-2T) (structured_DNA)
DNA: TTGGGTGGGTGGGTGGGT
modifications: 5'-hexynyl clicked to AHPC-PEG2
Work on B7 yielded a Kd [1] of 317 ± 45.1 nM.

B8: FAM_dG4 mut_A (ssDNA)
DNA: TTGTGTGTGTGTGTGTGT
modifications: 5'-hexynyl clicked to AHPC-PEG2
B8: no binding [2].

B9: rG4_A (unlabelled) (structured_RNA)
RNA: GGGUUGCGGAGGGUGGGCCU
modifications: 5'-hexynyl clicked to AHPC-PEG2
Binder B9 has an IC50 [3] of 176.8 ± 1 nM.

B10: FAM_rG4_P_PEG2 (structured_RNA)
RNA: GGGUUGCGGAGGGUGGGCCU
modifications: 5'-hexynyl clicked to pomalidomide-PEG2
Work on B10 yielded a Kd [1] of 132 ± 25.5 nM.
